The test system of this test is KDM4A-I71AzF. The test can be described thus: CASI: photo-crosslinking with HEK293T cell extracts, StrepTactin enrichment and LC-MS/MS proteomics.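 Note: lysates from HEK293T cells pretreated with a KDM4 inhibitor to raise proteome methylation, affinity-purified after ±UV, gel-resolved, trypsin-digested, with exclusive unique peptides per protein averaged per condition.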 The conditions noted are these: sheet "Final results but with 0.01". Type of test: binding, human.

B1: PAIRB_HUMAN (protein, UniProt Q8NC51 2-408, looked up)
SERPINE1 mRNA-binding protein …: PGHLQEGFGCVVTNRFDQLFDDESDPFEVLKAAENKKKEAGGGGVGGPGAKSAAQAAAQTNSNAAGKQLRKESQKDRKNPLPPSVGVVDKKEETQPPVALKKEGIRRVGRRPDQQLQGEGKIIDRRPERRPPRERRFEKPLEEKGEGGEFSVDRPIIDRPIRGRGGLGRGRGGRGRGMGRGDGFDSRGKREFDRHSGSDRSSFSHYSGLKHEDKRGGSGSHNWGTVKDELTESPKYIQKQISYNYSDLDQSNVTEETPEGEEHHPVADTENKENEVEEVKEEGPKEMTLDEWKAIQNKDRAKVEFNIRKPNEGADGQWKKGFVLHKSKSEEAHAEDSVMDHHFRKPANDITSQLEINFGDLGRPGRGGRGGRGGRGRGGRPNRGSRTDKSSASAPDVDDPEAFPALA
As to B1, the “Fold change (+UV/-UV)” value came out at 0.8571.

B2: MPCP_HUMAN (protein, UniProt Q00325 50-362, looked up)
Solute carrier family 25 …: AVEEQYSCDYGSGRFFILCGLGGIISCGTTHTALVPLDLVKCRMQVDPQKYKGIFNGFSVTLKEDGVRGLAKGWAPTFLGYSMQGLCKFGFYEVFKVLYSNMLGEENTYLWRTSLYLAASASAEFFADIALAPMEAAKVRIQTQPGYANTLRDAAPKMYKEEGLKAFYKGVAPLWMRQIPYTMMKFACFERTVEALYKFVVPKPRSECSKPEQLVVTFVAGYIAGVFCAIVSHPADSVVSVLNKEKGSSASLVLKRLGFKGVWKGLFARIIMIGTLTALQWFIYDSVKVYFRLPRPPPPEMPESLKKKLGLTQ
For B2, the “Fold change (+UV/-UV)” value is 1.

B3: KDM4C_HUMAN (protein, UniProt Q9H3R0 1-1056, looked up)
Lysine-specific demethylase 4C: MEVAEVESPLNPSCKIMTFRPSMEEFREFNKYLAYMESKGAHRAGLAKVIPPKEWKPRQCYDDIDNLLIPAPIQQMVTGQSGLFTQYNIQKKAMTVKEFRQLANSGKYCTPRYLDYEDLERKYWKNLTFVAPIYGADINGSIYDEGVDEWNIARLNTVLDVVEEECGISIEGVNTPYLYFGMWKTTFAWHTEDMDLYSINYLHFGEPKSWYAIPPEHGKRLERLAQGFFPSSSQGCDAFLRHKMTLISPSVLKKYGIPFDKITQEAGEFMITFPYGYHAGFNHGFNCAESTNFATVRWIDYGKVAKLCTCRKDMVKISMDIFVRKFQPDRYQLWKQGKDIYTIDHTKPTPASTPEVKAWLQRRRKVRKASRSFQCARSTSKRPKADEEEEVSDEVDGAEVPNPDSVTDDLKVSEKSEAAVKLRNTEASSEEESSASRMQVEQNLSDHIKLSGNSCLSTSVTEDIKTEDDKAYAYRSVPSISSEADDSIPLSSGYEKPEKSDPSELSWPKSPESCSSVAESNGVLTEGEESDVESHGNGLEPGEIPAVPSGERNSFKVPSIAEGENKTSKSWRHPLSRPPARSPMTLVKQQAPSDEELPEVLSIEEEVEETESWAKPLIHLWQTKSPNFAAEQEYNATVARMKPHCAICTLLMPYHKPDSSNEENDARWETKLDEVVTSEGKTKPLIPEMCFIYSEENIEYSPPNAFLEEDGTSLLISCAKCCVRVHASCYGIPSHEICDGWLCARCKRNAWTAECCLCNLRGGALKQTKNNKWAHVMCAVAVPEVRFTNVPERTQIDVGRIPLQRLKLKCIFCRHRVKRVSGACIQCSYGRCPASFHVTCAHAAGVLMEPDDWPYVVNITCFRHKVNPNVKSKACEKVISVGQTVITKHRNTRYYSCRVMAVTSQTFYEVMFDDGSFSRDTFPEDIVSRDCLKLGPPAEGEVVQVKWPDGKLYGAKYFGSNIAHMYQVEFEDGSQIAMKREDIYTLDEELPKRVKARFSTASDMRFEDTFYGADIIQGERKRQRVLSSRFKNEYVADPVYRTFLKSSFQKKCQKRQ
As for B3, the “Fold change (+UV/-UV)” value came to 1.333.

B4: RBMX_HUMAN (protein, UniProt P38159 1-391, looked up)
RNA-binding motif protein, X …: MVEADRPGKLFIGGLNTETNEKALEAVFGKYGRIVEVLLMKDRETNKSRGFAFVTFESPADAKDAARDMNGKSLDGKAIKVEQATKPSFESGRRGPPPPPRSRGPPRGLRGGRGGSGGTRGPPSRGGHMDDGGYSMNFNMSSSRGPLPVKRGPPPRSGGPPPKRSAPSGPVRSSSGMGGRAPVSRGRDSYGGPPRREPLPSRRDVYLSPRDDGYSTKDSYSSRDYPSSRDTRDYAPPPRDYTYRDYGHSSSRDDYPSRGYSDRDGYGRDRDYSDHPSGGSYRDSYESYGNSRSAPPTRGPPPSYGGSSRYDDYSSSRDGYGGSRDSYSSSRSDLYSSGRDRVGRQERGLPPSMERGYPPPRDSYSSSSRGAPRGGGRGGSRSDRGGGRSRY
B4: the “Fold change (+UV/-UV)” value came to 200.

B5: IF4A2_HUMAN (protein, UniProt Q14240 1-407, looked up)
Eukaryotic initiation factor …: MSGGSADYNREHGGPEGMDPDGVIESNWNEIVDNFDDMNLKESLLRGIYAYGFEKPSAIQQRAIIPCIKGYDVIAQAQSGTGKTATFAISILQQLEIEFKETQALVLAPTRELAQQIQKVILALGDYMGATCHACIGGTNVRNEMQKLQAEAPHIVVGTPGRVFDMLNRRYLSPKWIKMFVLDEADEMLSRGFKDQIYEIFQKLNTSIQVVLLSATMPTDVLEVTKKFMRDPIRILVKKEELTLEGIKQFYINVEREEWKLDTLCDLYETLTITQAVIFLNTRRKVDWLTEKMHARDFTVSALHGDMDQKERDVIMREFRSGSSRVLITTDLLARGIDVQQVSLVINYDLPTNRENYIHRIGRGGRFGRKGVAINFVTEEDKRILRDIETFYNTTVEEMPMNVADLI
Regarding B5, the “Fold change (+UV/-UV)” value was determined as 200.

B6: ECHB_HUMAN (protein, UniProt P55084 34-474, looked up)
Trifunctional enzyme subunit …: AAPAVQTKTKKTLAKPNIRNVVVVDGVRTPFLLSGTSYKDLMPHDLARAALTGLLHRTSVPKEVVDYIIFGTVIQEVKTSNVAREAALGAGFSDKTPAHTVTMACISANQAMTTGVGLIASGQCDVIVAGGVELMSDVPIRHSRKMRKLMLDLNKAKSMGQRLSLISKFRFNFLAPELPAVSEFSTSETMGHSADRLAAAFAVSRLEQDEYALRSHSLAKKAQDEGLLSDVVPFKVPGKDTVTKDNGIRPSSLEQMAKLKPAFIKPYGTVTAANSSFLTDGASAMLIMAEEKALAMGYKPKAYLRDFMYVSQDPKDQLLLGPTYATPKVLEKAGLTMNDIDAFEFHEAFSGQILANFKAMDSDWFAENYMGRKTKVGLPPLEKFNNWGGSLSLGHPFGATGCRLVMAAANRLRKEGGQYGLVAACAAGGQGHAMIVEAYPK
Take B6: the “Fold change (+UV/-UV)” value is on record as 0.

B7: ADT2_HUMAN (protein, UniProt P05141 1-298, looked up)
ADP/ATP translocase 2: MTDAAVSFAKDFLAGGVAAAISKTAVAPIERVKLLLQVQHASKQITADKQYKGIIDCVVRIPKEQGVLSFWRGNLANVIRYFPTQALNFAFKDKYKQIFLGGVDKRTQFWLYFAGNLASGGAAGATSLCFVYPLDFARTRLAADVGKAGAEREFRGLGDCLVKIYKSDGIKGLYQGFNVSVQGIIIYRAAYFGIYDTAKGMLPDPKNTHIVISWMIAQTVTAVAGLTSYPFDTVRRRMMMQSGRKGTDIMYTGTLDCWRKIARDEGGKAFFKGAWSNVLRGMGGAFVLVLYDEIKKYT
As for B7, the “Fold change (+UV/-UV)” value worked out at 0.8333.

B8: KDM4A_HUMAN (protein, UniProt O75164 2-1064, looked up)
Lysine-specific demethylase 4A: ASESETLNPSARIMTFYPTMEEFRNFSRYIAYIESQGAHRAGLAKVVPPKEWKPRASYDDIDDLVIPAPIQQLVTGQSGLFTQYNIQKKAMTVREFRKIANSDKYCTPRYSEFEELERKYWKNLTFNPPIYGADVNGTLYEKHVDEWNIGRLRTILDLVEKESGITIEGVNTPYLYFGMWKTSFAWHTEDMDLYSINYLHFGEPKSWYSVPPEHGKRLERLAKGFFPGSAQSCEAFLRHKMTLISPLMLKKYGIPFDKVTQEAGEFMITFPYGYHAGFNHGFNCAESTNFATRRWIEYGKQAVLCSCRKDMVKISMDVFVRKFQPERYKLWKAGKDNTVIDHTLPTPEAAEFLKESELPPRAGNEEECPEEDMEGVEDGEEGDLKTSLAKHRIGTKRHRVCLEIPQEVSQSELFPKEDLSSEQYEMTECPAALAPVRPTHSSVRQVEDGLTFPDYSDSTEVKFEELKNVKLEEEDEEEEQAAAALDLSVNPASVGGRLVFSGSKKKSSSSLGSGSSRDSISSDSETSEPLSCRAQGQTGVLTVHSYAKGDGRVTVGEPCTRKKGSAARSFSERELAEVADEYMFSLEENKKSKGRRQPLSKLPRHHPLVLQECVSDDETSEQLTPEEEAEETEAWAKPLSQLWQNRPPNFEAEKEFNETMAQQAPHCAVCMIFQTYHQVEFGGFNQNCGNASDLAPQKQRTKPLIPEMCFTSTGCSTDINLSTPYLEEDGTSILVSCKKCSVRVHASCYGVPPAKASEDWMCSRCSANALEEDCCLCSLRGGALQRANDDRWVHVSCAVAILEARFVNIAERSPVDVSKIPLPRFKLKCIFCKKRRKRTAGCCVQCSHGRCPTAFHVSCAQAAGVMMQPDDWPFVVFITCFRHKIPNLERAKGALQSITAGQKVISKHKNGRFYQCEVVRLTTETFYEVNFDDGSFSDNLYPEDIVSQDCLQFGPPAEGEVVQVRWTDGQVYGAKFVASHPIQMYQVEFEDGSQLVVKRDDVYTLDEELPKRVKSRLSVASDMRFNEIFTEKEVKQEKKRQRVINSRYREDYIEPALYRAIME
Consider B8, for which the “Fold change (+UV/-UV)” value was 1.184.

B9: EF1A1_HUMAN (protein, UniProt P68104 2-462, looked up)
Elongation factor 1-alpha 1: GKEKTHINIVVIGHVDSGKSTTTGHLIYKCGGIDKRTIEKFEKEAAEMGKGSFKYAWVLDKLKAERERGITIDISLWKFETSKYYVTIIDAPGHRDFIKNMITGTSQADCAVLIVAAGVGEFEAGISKNGQTREHALLAYTLGVKQLIVGVNKMDSTEPPYSQKRYEEIVKEVSTYIKKIGYNPDTVAFVPISGWNGDNMLEPSANMPWFKGWKVTRKDGNASGTTLLEALDCILPPTRPTDKPLRLPLQDVYKIGGIGTVPVGRVETGVLKPGMVVTFAPVNVTTEVKSVEMHHEALSEALPGDNVGFNVKNVSVKDVRRGNVAGDSKNDPPMEAAGFTAQVIILNHPGQISAGYAPVLDCHTAHIACKFAELKEKIDRRSGKKLEDGPKFLKSGDAAIVDMVPGKPMCVESFSDYPPLGRFAVRDMRQTVAVGVIKAVDKKAAGAGKVTKSAQKAQKAK
Take B9: the “Fold change (+UV/-UV)” value is recorded as 0.9444.

B10: THIO_HUMAN (protein, UniProt P10599 2-105, looked up)
Thioredoxin: VKQIESKTAFQEALDAAGDKLVVVDFSATWCGPCKMIKPFFHSLSEKYSNVIFLEVDVDDCQDVASECEVKCMPTFQFFKKGQKVGEFSGANKEKLEATINELV
Regarding B10, the “Fold change (+UV/-UV)” value was 0.5.

B11: ATPA_HUMAN (protein, UniProt P25705 44-553, looked up)
ATP synthase F(1) complex …: QKTGTAEMSSILEERILGADTSVDLEETGRVLSIGDGIARVHGLRNVQAEEMVEFSSGLKGMSLNLEPDNVGVVVFGNDKLIKEGDIVKRTGAIVDVPVGEELLGRVVDALGNAIDGKGPIGSKTRRRVGLKAPGIIPRISVREPMQTGIKAVDSLVPIGRGQRELIIGDRQTGKTSIAIDTIINQKRFNDGSDEKKKLYCIYVAIGQKRSTVAQLVKRLTDADAMKYTIVVSATASDAAPLQYLAPYSGCSMGEYFRDNGKHALIIYDDLSKQAVAYRQMSLLLRRPPGREAYPGDVFYLHSRLLERAAKMNDAFGGGSLTALPVIETQAGDVSAYIPTNVISITDGQIFLETELFYKGIRPAINVGLSVSRVGSAAQTRAMKQVAGTMKLELAQYREVAAFAQFGSDLDAATQQLLSRGVRLTELLKQGQYSPMAIEEQVAVIYAGVRGYLDKLEPSKITKFENAFLSHVVSQHQALLGTIRADGKISEQSDAKLKEIVTNFLAGFEA
Regarding B11, the “Fold change (+UV/-UV)” value is given as 1.4.

Source of the values: PMC10540216, “Activity Guided Azide-methyllysine Photo-trapping for Substrate Profiling of Lysine Demethylases” (Journal of the American Chemical Society, 2023).
